Test results reported in the DeepSol protein solubility set.

Assay: soluble on expression in E. coli; label from the status in PepcDB or PDB records

## MIKLAPAGLKDDIEMRKVYAGFIAGQIEAGSPIIALEADLMSSMAMDSVARDYPQHVINCGIMEANVIGTAAGLALTGRKPFVHTFTAFASRRCFDQLFMALDYQRNNVKVIASDAGVTACHNGGTHMSFEDMGIVRGLAHSVVLEVTDAVMFADILRQLMDLDGFYWLRTIRKQARSIYAPGSTFTIGKGNVLREGDDITLIANGIMVAEALEAARQLEQEGVSAAVIDMFTLKPIDRMLVKNYAEKTRRIVTCENHSIHNGLGSAVAEVLVENCPVPMRRVGVKERYGQVGTQDFLQKEYGLTAEAIVEAAKSLL
  soluble on expression in E. coli: not soluble

## VSTTPAAGVLDTSVFIATESGRQLDEALIPDRVATTVVTLAELRVGVLAAATTDIRAQRLATLESVADMETLPVDDDAARMWARLRIHLAESGRRVRINDLWIAAVAASRALPVITQDDDFAALDGAASVEIIRV
  soluble on expression in E. coli: not soluble

## MTQHQTLPQTTEGAYHYQVIRRAIELIDQTDQPISLDEIAANMGMSPAHFQRVFSRWVGVSPKRYQQYLTLGHAKTLLSERFSTLAASHAVGLSGSGRLHDLFLRWEAMSPGEFARKGAGLTIYWGWFESPFGPAIVMGTEKGICGMGFAAEMGAETAFEDLAARWPQASYVEDPMMLRPWVLQAFGAKDGALDTTPLFLIGAPFQIKVWEALLSIPTGHVTTYSEIAQAVGAPRAVRAVGTAVGRNPISWIIPCHRALRKSGGLGGYHWGIPMKRAMLAYEAVELETLEHHHHHH
  soluble on expression in E. coli: not soluble

## MAHHHHHHMSGDLLEILGESRNWVLKRHRVLGKGGFGCATLYEEVHTPGSFVVVKDINMQIMKKEEEMKAVEMEVAILRRSCGHPNIVQFLDYYHDGQFMMYIVMEYCEGGDLARLEEQMQFRVFHQPERFVASILIQMLVGLYYLHVDQHTLHRDIKPQNVFLCSDGTIRIGDFGVSTVLNQYGCRAKAVCGSPFYMAPELCEEKAYDGKADLWSLGVMMYELMVLERPFNAKSIPALTRQIIHGEFSPIPRELHYSAQLVEMVESFLQTSPTARPTLRRVLRSSYVHSHLDCVPIVCLLSDHYARLFGEELLQQILQKHKDSTNTTSQVTTVVSRNSASVQEVERCKNHSDHSDSASAQPLAHQEISELEQWLEANGDVTDAFIDAQLPRNRADGQELSNSPSDIGRAVKTGRVFSDDIMDDSISSEQGKGQQAEDDVRDDFYEDDFESESSG
  soluble on expression in E. coli: soluble

## MSLKIRSLHTDALKKLAVKCEDLFMAGQKDQLRFGVDSWSDFRLTSDKPCCEAGDAVYYTASYAKDPLNNYAVKICKSKAKESQQYYHSLAVRQSLAVHFNIQQDCGHFLAEVPNRLLPWEDPDDPEKDEDDMEETEEDAKGETDGKNPKPCSEAASSQKENQGVMSKKQRSHVVVITREVPCLTVADFVRDSLAQHGKSPDLYERQVCLLLLQLCSGLEHLKPYHVTHCDLRLENLLLVHYQPGGTAQGFGPAEPSPTSSYPTRLIVSNFSQAKQKSHLVDPEILRDQSRLAPEIITATQYKKCDEFQTGILIYEMLHLPNPFDENPELKEREYTRADLPRIPFRSPYSRGLQQLASCLLNPNPSERILISDAKGILQCLLWGPREDLFQTFTACPSLVQRNTLLQNWLDIKRTLLMIKFAEKSLDREGGISLEDWLCAQYLAFAEGHHHHHH
  soluble on expression in E. coli: not soluble

## MGSDKIHHHHHHMELPVVVQQALGDNAPGVSFRSVSQIDTGHLLRMVLLSDDQGNLQAICRRNDMLDLEALNKRLGRDLRMMQRREQVRVRQKAGLQELPALPSLTGWPTVVDRRVDELEAVALELGEQDLGLMMPAEDFRQLTAKAARHDFAVDTANISVNLDNHAADRDQLHSAIKRFTGLRIQQRLEDTLELPPLPETAQRIIHLRVNPNAVMGDLVDVVESDPSLAAQVVSWASSSFYAAAGRVHSVHDAVSRVLGFDLVMNLAMGLALGRALKHPQDHPDGYVDYWQQAIWQAQSAGILASMMPRGQRPLFGLAYLAGLLHNFGHLVLAQVFPPHFKLVCRSLEVSPHIDSSVIEHYLLGITREQIAAQLMENWGMPDEVTLAIRYQKNPAYDGPHNVYARLLWLGRQLLTERGVALGAGESATQAVYDELGLDRELVQEQFDELVRRKDSIMAMAGMMSQGG
  soluble on expression in E. coli: not soluble

## MKQRGGFLGGQLLIAMPGMNDKRFIRSVIYICAHSDAGAMGIILNQLHHIGFPELLLHLGVINSGQKKDLSEPIKKFPVRYGGPVDPSRGFVLHSDDYACEETVLVADKICFTATIDILKAISCEKGPQHALIALGYAGWKAGQLEAEISTNGWLISSTSPSFLFESDLNRKYDESLIRMGINPTYLVSEMGHA
  soluble on expression in E. coli: not soluble

## VISCDDVPEDLETDHLFSSQMVAVVAPEHELAQREAITFDEFFEHELVMFQHGYFHREFLDHVSEEHGFSMKSSFETNLLPLILSIVRQEFAITALLELVTQNEKGVVGIPFHPPVTLDLALAWRKEGYLSIADRTFIDFVKRYV
  soluble on expression in E. coli: not soluble

## GFIDSHVHLFGGSVELDCLSLYGVKGLDAMRAAIQPYAQANPDDALVFCVMADYDILGTGHTLTRHDLDSILADRPLAMFAPDHHTVWANTAALEATGLLQGGEVDAGSLIVLGEDGLANGELLEPGAYGPILGLTRHGGREMLGLTTGKDPEPPATPDQRARDKDVIARGLAHCAAQGITGLHLMDGNRYQLELLTELEAEGRLLCRCEVPFHMKGTDPVERMTAEAPAMRAAYRGDKVRCNHLKMFIDGVIESGTALMLRPYPGELGANDNTGDEVFTQEHFTACCVEADRLGFQIAVHAIGDAGVRRTIDAFEAARRANGTRDSRHRIEHIEVIHPDDIPRLAELDIVASLQPGHAPRGHVFPPGAVGQYLHPDQIVGAYAWQTIRETGARVVFSTDWPVIPVDVMPSLRAAIAPLDLGPDWPDQSQSLMDTLASYTRDNAWVEFNEDSKGRLKVGMAADIAVLSHDLTALAPDDITQAAAMVTIMDGAVTY
  soluble on expression in E. coli: not soluble

## MGSDKIHHHHHHMLGLKLPTDPRWVEIVETNIPEILTDHAYCEQKATTNAMYIVINFPEYTELVSDMIDLAQEELQHFKMVHDIIKKRGLVLGRARAAPYAGDIYAFMRKGHIRKYVLIDRLLFSALIEARSCERFRLLSEQISDPELKEFYRELMISEATHYTTFINYARKYSEGEDIDKRWQEFLAYEATVISKYGDNATMHG
  soluble on expression in E. coli: not soluble

## WMQTSDGLRIRAGHWRPEGEVRGTVLMFPGRTEYVEKYGNAAQAFVTRGFAMLAVDWRGQGLADRLLEDRRLGHVLEFTDYQRDVAAVVELATTLDLPRPWFVVGHSMGGAIGLRAVMEGLPVAACAFTGPMWGIFFTPVMKPLSWITANLAPAIGMGHKHPATTTLEPYVQAQEFEGNSLTRDPAMYEMMRSQLAAHPELALGAPTNIWLREALAECRALSDRPSPDLPCLTFLGSHEQIVDRKAVRARMARWPRGELVEIPDGEHEVLMEAPEVRDPAYDRM
  soluble on expression in E. coli: not soluble

## MGSDKIHHHHHHMLHYNALTRGCGRITLLMLGLALCQPVFAHPHSFIDMQTTVESQNDNITGLRMQWTMDPITSADLLYDAGKAKKDSEVWKKLAAEVMANVLGQHYFTDIYRDSQPVKYAPMPTEYHLSRKGNQAILEFVLPLAHPQPLAGKPLLISTYDPTYFVDMSYQNDKAVKLAPALASRCKTSLVTPKPNTELQSYALSLDKNDAPDEDMDLGKQFAQRVTLQCQ
  soluble on expression in E. coli: not soluble

## MSAEQVWQGNFEQLCLFHNLQGRWPGCREGALGRWCTIQRRDYRKGNMSDERKAQLERIGFPLALEHHHHHH
  soluble on expression in E. coli: not soluble

## MGSDKIHHHHHHMGTVPTPAGLAFFQQVQLALRHLDHAVDSAHSSRLSGHVTVGFSPSVAAVIGTHFLKLMRNRYPDIKVRLIEGLSGDLKALVNARQLDVAIIFSDDVDPQWAIQPLVKEQMFLISPKEVLNQYHLESCIDNQTITHSQLKELPLILPSQRHGLRLLLEQKIHQLKVAYEIDGLHLLMESISQLEMATIQPAGASLNSRQDLCLLRVVEPAIERINYLISLSEEELSPATLATKVVIRACVANLINEKRWPGAELINT
  soluble on expression in E. coli: not soluble

## MSLELSQKKWKSFKISEIFRIESCKCGNASLLEDGDDLFYRGAKKNDNGVIRRVKRIDSLVSKGNCIMFICDGDGSCGYTNYISDDFIGSTTTSVGYNENLNVYIGTFITTILDMHKYKYSHSRKYRNSLLNEILILPINNDGIPDWKWIEEYMKSLSGSINTQIYDIIDTADGDRNIVKFFINKIEASDFKLWLQDNANMDVNNQMSLKDVKWKGFKLSELFNIERGCRLKKSNRITGNTLLITAGKENHGIAMYVEPPMNSEGNLINKIYKDRLTIDMFCNSFYQSENFICDDNILVLIEKQKMTKNIKHFIATILSMDIYKFSFTRQYRQKDFNKHIIMLPINDKGNLDWEWIEEYMKSLPYSDKETRLFVNTIEGHHHHHH
  soluble on expression in E. coli: soluble

## LLFLSRERGPSQSTPSLISSAAPTMIKMEVNGHGKAMALGEGPPLPAGVQVPAGPQTVMGPGLAPMLAPPPRRTPKQHNCQSCGKTFSSASALQIHERTHTGEKPFGCTICGRAFTTKGNLKVHMGTHMWNNAPARRG
  soluble on expression in E. coli: soluble

## MNNGTVKWFNAEKGFGFIEQENGGDVFVHFSGIASDGYKTLEEGQKVTFEITEGQRGDQAVNVQTV
  soluble on expression in E. coli: not soluble

## MGSDKIHHHHHHMQAKTTLEQWEILQAVIDLGGYTQAANVLHRSQSSVSYQLSLLQERLGIELLTIHGRKAELTPEGENLLAQARSVIRSFHALEARAHSLKMGEQASINLVVDSTFPKDRLFHLLSTFQKQHPATRIHLTEVLRNETSAQLKARDADIYIITQREIDGCAGRWLMNVDFVAVAHSHHPLFSLPTPLSHEALSRYPCVEIVMRTPPHSQPASAESWTFTTFEAATQAVLHQVGYGWLPEARISEHITRGELHILPLQQGERRTTPLYLLAEEKGQPLGKEIIMLIELLFGRL
  soluble on expression in E. coli: not soluble

## MSDRIASEKLRSKLMSADEAAQFVNHGDKVGFSGFTGAGYPKALPTAIANRAKEAHGAGNDYAIDLFTGASTAPDCDGVLAEADAIRWRMPYASDPIMRNKINSGSMGYSDIHLSHSGQQVEEGFFGQLNVAVIEITRITEEGYIIPSSSVGNNVEWLNAAEKVILEVNSWQSEDLEGMHDIWSVPALPNRIAVPINKPGDRIGKTYIEFDTDKVVAVVETNTADRNAPFKPVDDISKKIAGNFLDFLESEVAAGRLSYDGYIMQSGVGNVPNAVMAGLLESKFENIQAYTEVIQDGMVDLIDAGKMTVASATSFSLSPEYAEKMNNEAKRYRESIILRPQQISNHPEVIRRVGLIATNGLIEADIYGNVNSTNVSGSRVMNGIGGSGDFTRNGYISSFITPSEAKGGAISAIVPFASHIDHTEHDVMVVISEYGYADLRGLAPRERVAKMIGLAHPDYRPLLEEYYARATSGDNKYMQTPHDLATAFDFHINLAKNGSMKA
  soluble on expression in E. coli: soluble

## AVTFAVMVSDAPSLDESKLKTPYSSTIYDKNGKEIAEVGAEKRTYVSIDEIPDVVKEAFIATEDARFYEHHGIDPVRIGGALVANFKDGFGAEGGSTITQQVVKNSLLSHQKTLKRKVQEVWLSIQLERNYSKDEILEMYLNRIYFSPRAYGIGKAAEEFFGVTDLSKLTVEQAATLAGMPQSPTAYNPVKNPDKAEKRRNIVLSLMKKQGFISDSQYNKAKKVAVKDEGVVSQKEYEKASTNKYSAFVEEVMKEIDEKSDVDPSADGLKIYTTLDTKAQDKLDELMDGDTVGFTEGMQGGVTLLDTKNGEVRAIGAGRNQPVGGFNYATQTKAQPGSTIKPILDYGPVIENKKWSTYEQIDDSAYTYSNGKPIRDWDRKYLGPISMRYALAQSRNIPALKAFQAVGKDTAVDFANGLGLGLTKDNVTEAYSIGGFGGNDGVSPLTMAGAYSAFGNNGTYNEPHFVKSIEFNDGTKLDLTPKSKSAMSDYTAFMITDMLKTAVKTGTGQLAQVPGVEVAGKTGTTNFDDNEVKRYNIASGGARDSWFVGYTPQYTAAVWTGMGENEAGKKSLSAEEQKVAKRIFAQLIADVDDGSGSFEKPDSVVEATVEKGSNPAKLAGPNTPSDKKLTEYFVKGTAPSTVSKTYEKEEKEETAKLSGLNVKYDKDNQSLTLSWNYDGDATFAVKQSVDGGSYSEIQNSSAKEAVISGVQPGSVYKFEVTAVSDDGKSTASTSYEVPKAEDDEDKKDQQQTDDEKQDDEKTQDDTQTDDSQKDDGQTDQDQTDDSTNDQDKKQDNTNTNPSDNNNQDQSNDNDNDNSNNQDTSDGDSNSGKNDSTGSDTNKNKTDTSNKTQTNSSSIEKT
  soluble on expression in E. coli: not soluble
